Data from a protein production outcome set (Wang et al. 2014).

Assay: label from the status in PepcDB records

Row | Sequence | protein production
1 | MLYNSEVITYERAPKSEKDTKVENIKKLFILKVLIYAVSSFAISRVVMINSMVPFGIAFLACVLIYKKNDKASFLAAVGSLVGYISISGEVKDSVMYEIGVIIITLLMVVMKEKEDIKKLVTSAIFLLIEFIMFKILVEKLTVQSALIFTLIEIACVCSVYYIIRYGIICLDNIRTKHLFTNEEIISMSVLVALVISGTRNFDIYNVSIRNVLAMVFVIAISYIEGSSAGAAGGIAIGAIIGMNSSDVMIYIGVFGFLGFIAGVFKDFGKWITAGVYLIIFLIIIIYCKNHVDFSLMEAAITCIIFAGIPNKLYKKMECEFNWDRKQSDITNRYIEKMKDIFVKKLENFSEVLFTMSTTLNNLADNDKLTMKNKSCRLVENLADRVCGKCNMNSICWKREIYYTYAAFEELIQNFQEGINKIPDEIERKCVRRKELIKHTDMIINDYIMNEMWRMQVCSGREFMSAQVKNIGTSVENIIDEFSNELKFNVDVEEKIIRLLNKMGIPYKDIMCVNDKRNRNLVKLTMEACGGRQICVKHVLPVINEAVGTLMCVGDDGCSICPETNLCSVTFEETPKYYISSQIVRACKDGEEVNGDSYSFGKGKDGNYNIIISDGMGHGVQAEKESRAVIDLIEKFNESSLNRTMAINTVNSIMTLKFEEDEKFSTVDLCSVDLYSGDAEFIKVGGVTSFIKKKDKIEVINAKTLPIGVLDTVDMEVNHKKVENGDMIVMISDGVVNYDDENAGKVNWIIDFLKNSSANKPKELGEAMLKKAIELSGGKAKDDITIIISKVYSLY | failed
2 | MSSLNNEEWDLLISGKKATLQYPIPLLCYPAPEVVSIAQIIDHTQLSLSATGSQIDVLCAEAKEYGFATVCVRPDYVSRAVQYLQGTQVGVTCVIGFHEGTYSTDQKVSEAKRAMQNGASELDMVMNYPWLSEKRYTDVFQDIRAVRLAAKDAILKVILETSQLTADEIIAGCVLSSLAGADYVKTSTGFNGPGASIENVSLMSAVCDSLQSETRVKASGGIRTIEDCVKMVRAGAERLGASAGVKIVNETRLGNRQVDEPMEPTNY | not failed
3 | SLLGQKSQRYKAEEGLQAQGEAPGLMDVQIPTAEEQKAASSSSTLIMGTLEEVTDSGSPSPPQSPEGASSSLTVTDSTLWSQSDEGSSSNEEEGPSTSPDPAHLESLFREALDEKVAELVRFLLRKYQIKEPVTKAEMLESVIKNYKNHFPDIFSKASECMQVIFGIDVKEVDPAGHSYILVTCLGLSYDGLLGDDQSTPKTGLLIIVLGMILMEGSRAPEEAIWEALSVMGLYDGREHSVYWKLRKLLTQEWVQENYLEYRQAPGSDPVRYEFLWGPRALAETSYVKVLEHVVRVNARVRISYPSLHEEALGEEKGV | not failed
4 | MIKETVFKSFDTPAALEQQLANKIASQLQEAVDARGKASLVVSGGSTPLKLFELLSMKSIDWSDVYITLADERWVDVEDSASNERLVREHLLQNRAANAKFRGLKNMFSTAEAGADMTCESLSNFPRPFDVVVLGMGNDGHTCSWFPCSAELNDALTTQALCVATNPTTAPHGRITLSKNAILNSRQIYLHLVGEQKLSVYRQALENDDVNAMPIRAVLAQRKTPVDVFWSA | failed
5 | MADRPHPYDRAPGGSSGSHDRTGVFRRNPDGGLPDRIDSLYRPEPAARSASDAAATRRLSRTSGTPPRRPTPRSRGRDSGGWERRERERRARRRKKAAVLVLVLLLLLPTVGYLWANSRLNRVAALVPYEGRPDDQPGTTYLIVGSDSREGLSDEDMEALRTGKAEGKRTDTIMVLYVPTEGRPAIISVPRDSYVEIPGIGANKINAAYAEALGGGPATLVRTFEQASGVRIDHYVEIGFAGFVDIVDAVGGVELCPEEAMEDPKAGLDIEAGCQVMDGPTALGYVRTRATPRADLDRIQRQREFFSALIQQATAPSTLFNPFRSIPLVLSGTSTFSVDEGDSLMDLAWLALAMRDSPATTAVPVGSTPTLDVGSVVLWDEARAEEMFAAMREGRPIPESAMQD | failed
6 | RIPDIEEVELAEAPADKVLPDGFYVTTNHPTFVRYGGEWLPVEDISMDRVIVIRDGRAYCIPIDEVVRGDRVVVGEKGVRVVPPERPRKSTVFEFMGGRVSSERPTERMIEAIAREIYELKLKGGKIAVVAGPAVDHTSARNALAALIRDGYVDLLLSGNALAVHDIEISIFGTSLGMDICKGRPVPGGNRHHLYTISKVIAAGGIKKAIEKGIIKDGIMYECVKNNVPFILAGSIRDDGPLPEVITDVMVAKKKMKEALRGINMVIMLATMLHSIAVGNLLPSYVKTICVDMNPSTVTKLMDRGTHQAIGVVTDVGLFLPLLYLKIKE | failed
7 | MRGTAAIEGPGSQSMITRRGFLRFIGGSFLTAAALGAYAVGIEPMLLTHVKRYALTPPHWPDGLKLRVVALADIHACRPWMTQERIASLVEDANALQPDLIVLLGDYIAGMPLVTGPVTPSQWASALSGLKAPLGVLSILGNHDWWSDGFAQRAGAGPIIARKALEKVGIPVLENDVVRLEKDGQSVWIAGLADQLALLPARKGDDCKGLDDLDGTLAKVGDTAPIILLAHEPDIFPTVPSRVSLTLSGHTHGGQVRLFGYSPVVPSRFGNRYAYGHVVEKDRNLIVSGGLGFSIMPVRFGVRPEILQIDLG | failed
8 | MPSFDIVSEITLHEVRNAVENANRVLSTRYDFRGVEAVIELNEKNETIKITTESDFQLEQLIEILIGSCIKRGIEHSSLDIPAESEHHGKLYSKEIKLKQGIETEMAKKITKLVKDSKIKVQTQIQGEQVRVTGKSRDDLQAVIQLVKSAELGQPFQFNNFRD | not failed
9 | MRQYPRWYYDEFKQSGADYADIEEVNTYDLRMQNLRNIENESNRIRELLKLKKSDVVLEIGTGTGELALNISAHCKQVIAIDVSKMMINFARRKAESQNKTNIQFYNAGFLTYENHDELFDVIVTQLALHHLPDYWKMMALRRIYGMLKEEGKFYLHDVVFPSSIQNYDSYFDKIITDLEISAGDKIAEETEIHIKEEFSTLDWVMEGLLTGVGFYIEYIKYDGFMASYICKK | failed
10 | PDIGTFTVRPLDPTRDAELLHGWVTHPKSAFWMMQEARLHDVEREYMAIAASEYHDAFLGLLDDEPVFLMEKYDPAHVELVGLYEPEPGDVGMHFLVAPTDTPVHGFTRAVITAVMEHLFADPATRRVVVEPDVGNKAVHALNEAVG | failed
11 | MSVIHPLQNLLTSRDGSLVFAIIKNCILSFKYQSPNHWEFAGKWSDDFDKIQESRNTTAKEQQGQSSENENENKKLKSNKGDSIKRTAAKVPSPGLGAPPIYSYIRNLRLTSDESRLIACADSDKSLLVFDVDKTSKNVLKLRKRFCFSKRPNAISIAEDDTTVIIADKFGDVYSIDINSIPEEKFTQEPILGHVSMLTDVHLIKDSDGHQFIITSDRDEHIKISHYPQCFIVDKWLFGHKHFVSSICCGKDYLLLSAGGDDKIFAWDWKTGKNLSTFDYNSLIKPYLNDQHLAPPRFQNENNDIIEFAVSKIIKSKNLPFVAFFVEATKCIIILEMSEKQKGDLALKQIITFPYNVISLSAHNDEFQVTLDNKESSGVQKNFAKFIEYNLNENSFVVNNEKSNEFDSAIIQSVQGDSNLVTKKEEIYPLYNVSSLRKHGEHYS | failed
12 | MGPPERPSLGWTPKEADMQSGPQPDEWSSGWKPGDGGAAPLPLSPALSFLLLFPLASALQPTPLPFPELRLVGGPSRCRGRLEVMHSGSWGSVCDDDWDVVDANVVCRQLGCGLALPVPRPLTFGQGRGPIFLDNVECRGQEASLSECGSRGWGVHNCFHYEDVAVLCDEFLHTQPPARKVLTSIAPPTALQNGRGEGSVRLAGGASPCQGRVEILHGGLWGTVCDDDWGLPDAAVVCRQLGCGAALAATTNAFFGYGTGHILLDNVHCEGGEPRLAACQSLGWGVHNCGHHEDAGVLCAATGVGALPSRDTIRFTTAAWASGKKSGRLRLVGGPSPCRGRVEVLYAGGWGTVCDDDWDFADARVACREAGCGPALGATGLGHFGYGRGPVLLDNVGCTGTEARLSDCFHLGWGQHNCGHHEDAGALCAGEAVESDKEAAQAEQAGLRAHKRGSVHARTNNMGPEELGLQVQQDGSETTRMPSPRPRDGHLRLASGTHRCEGRVELFLGQQWGTVCDDAWDLRAAIVLCRQLGCGQALAALGEAHFGPGRGPILLDNVKCRGDESTLLLCSHIRWDVHNCDHSEDASVLCQPL | failed
13 | MNEDALTFLSRQHPYDELPAGVLNDVAAQVEKLSVAEGEMIYAYGEPLEGLYIIQSGLVDVRDQSDTQVSMLERGNSFGERGLLADGNAVTSARAVRDTLLIRVPVSLFNTLRTEQSPFQRFFARSSARPDKSATQQTSLAQVSVDALMVRNPVTCTPGTSVVDAAVLMTSRRISCLCITEEDRLTGIVTLRDLVGKALAAGLPPQTPLSDIIQNEPVSLPPTAIGSDVLHMMMEYNLGHLPIVDAGKLVGIVTQTDLTRYQATTAAGLVADAARAQSVEALADITGRIPALLVQLVAAGNRHDVVTRMITDIADVVTRRLLNMAEEKLGPAPLRYLWLACGSQGRQEQTGVSDQDNCLILEDGASRDDIAYFHEMATFVSDGLNACGYVYCPGDMMATNPRWCQPLSVWKEYFNGWIKSPSKEAQMLASVMFDLRPIGGDASLFHGMQQATLEKAAKNSIFTAHMASNSLTHQTPLGLLRGLATISSGDHRKTIDTKLNGVVPVVDLGRMYALQGKLTVANTRARLIAALNNKTISAKGGRDLLEAYDLVAQTRLEHQARLIKEGKAPDNYLPPARLSDFERSHLRDAFVVIKTMQSALMQGRGILG | failed
14 | MINTMTLDNGVRIITEKMSTVRSVSIGIWVGTGSRYESAEENGISHFLEHMFFKGTNTRSAQEIAEFFDSIGGQVNAFTSKEYTCYYAKVLDDHAGQAIDTLSDMFFHSTFQKEELEKERKVVFEEIKMVDDTPDDIVHDLLSSATYGKHSLGYPILGTVETLNSFNEGMLRHYMDRFYTGDYVVISVAGNVHDELIDKIKETFSQVKPTTYNYQGEKPMFLPNRIVRKKETEQAHLCLGYPGLPIGDKDVYALVLLNNVLGGSMSSRLFQDIREKRGLCYSVFSYHSSFRDSGMLTIYAGTGHDQLDDLVYSIQETTSALAEKGLTEKELENGKEQLKGSLMLSLESTNSRMSRNGKNELLLKKHRSLDEMIEQINAVQKQDVSRLAKILLSASPSISLINANGELPKALIH | failed
15 | MGIELVMENAHWFWLSLGGLLLAAEMLGGSGYLLWSGLSAVLVGLLTWIMPLGWPWQGTIFAILTIVTALLWWYWLRKRTLSRPPSTLNQRGQQLVGLRATVSESVTNGFGRVNIGDSSWRVKSEQDLPAGTHVEVIAVDGITLHVRSIER | failed
16 | ATSYMTCSAYQKVQDSEISFPAGVEVQVLEKQESGWWYVRFGELEGWAPSHYLVLDENEQPDPSGKE | not failed
17 | MTGAVETESMKTVRIREKIKKFLGDRPRNTAEILEHINSTMRHGTTSQQLGNVLSKDKDIVKVGYIKRSGILSGGYDICEWATRNWVAEHCPEWTEGQPIILNEEGDFTLGPLPE | not failed
18 | MEWEVKEDGYSEEVSSLFLDHLPSKILEAKNRAEQLLTLQEKPILDIAEYNHAKVLAAFQEERVSTYHLQGTTGYGLGDSGRETLDRVMARILGTEAALVRGQFVSGTHAIATALFGVLRPGDHFISVTGDPYDTLEEVIGIRGTGQGSLKDFGVSYDSVPLSEEGTIQHSLVSQGIKPNTKMLILQRSRGYAWRNSLPMEQIAAFVAYVREHFPHLIIFVDNCYGELVEKCEPGDVGADLMAGSLIKNLGGSLAPTGGYIAGRQELVEKAACRLTAPGIGGEVGATLSWQLQFFQGLFFSPLTVSEAIRGAIFSAAFWQALGFEVNPLPDALRTDLIQAVKLNSREAMIAFCQGFQKGSPVDSHVLPIPSGMPGYEDEVIMAGGTFIQGATSEFSADGPMRDPFIAYQQGGVSMNYIKFGNLLAAQKLWEQGLLK | failed
19 | MEKIRQPTHAGSWYTDNPTKLSSDLEEWLNATGLTKSPDVRGVIAPHAGYSYSGRAAAYAFANIDPTNISRIFLLGPSHHFYTPKCALSTATVYKTPIGNLPVDVEMIKEIRAMGKFGMMDLRVDEAEHSMEMHLPYLAKVFEGNNVKVVPILVGAVSPENEAMYGELLAKYVDDPKNFFSVSSDFCHWGSRFNYMHYDNTHGAIHKSIEALDKKGMDIIETGDPDAFKKYLLEFENTICGRHPISIFLHMLKHSSSKIKINFLRYEQSSQCQTMRDSSVSYASAAAKLET | failed
